# In paper PMC3869713:
# Assays:
# [1] = biological target: CHK2 (UniProt O96017); experiment: F-EMSA; details: 25 mM Tris-HCl pH 8.0, 10 mM NaCl, 25 mM KCl, 5 mM MgCl2, 0.01% IGEPAL CA630, 10 ug/ml yeast tRNA, SUPERase-In; 2 nM RNA, room temperature 2 h; F-EMSA on …
# [2] = biological target: CHK2 (UniProt O96017); experiment: fluorescence polarization; details: 25 mM Tris-HCl pH 8.0, 10 mM NaCl, 25 mM KCl, 5 mM MgCl2, 0.01% IGEPAL CA630, 10 ug/ml yeast tRNA, SUPERase-In; 2 nM RNA, room temperature 2 h; F-EMSA on …
# CHK2, sequence (O96017 whole entry): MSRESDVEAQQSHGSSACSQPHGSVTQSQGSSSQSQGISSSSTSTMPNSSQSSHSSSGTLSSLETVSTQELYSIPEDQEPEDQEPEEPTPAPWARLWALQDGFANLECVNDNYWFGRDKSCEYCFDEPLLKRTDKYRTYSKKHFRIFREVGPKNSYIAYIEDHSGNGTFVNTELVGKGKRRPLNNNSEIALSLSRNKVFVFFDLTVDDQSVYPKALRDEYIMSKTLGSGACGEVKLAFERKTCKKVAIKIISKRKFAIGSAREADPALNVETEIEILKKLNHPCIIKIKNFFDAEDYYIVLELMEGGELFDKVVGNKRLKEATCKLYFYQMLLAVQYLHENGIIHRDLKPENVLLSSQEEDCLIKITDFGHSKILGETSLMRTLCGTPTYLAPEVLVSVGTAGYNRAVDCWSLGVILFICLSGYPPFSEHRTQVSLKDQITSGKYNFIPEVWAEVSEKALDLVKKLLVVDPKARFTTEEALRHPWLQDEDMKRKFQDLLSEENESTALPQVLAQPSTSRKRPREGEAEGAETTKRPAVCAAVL
sequence,measurement,setting,value
GGGAAUGGAUCCACAUCUACGAAUUCGAUCGGUUCCAACGCUCUGUCGCCUAAGUGAACAGAUGAAGAAAAAAUAGCCCAAUAAGAGGCAACAAUCUUUCACUGCAGACUUGACGAAGCUU [C6M1],Kd,[1],180 nM
same,Kd,[2],299 nM
